Data as given in paper PMC7371201.

Tests used:
[1] = test system: NbGlk1(83-402) (Nicotiana benthamiana); assay: fluorescence anisotropy; conditions: DNA annealed in 150 mM NaCl, 15 mM Na citrate, binding buffer, pH and temperature not given in the material
[2] = molecular target: NbGlk1(83–402) (N. benthamiana (from the prefix Nb)); assay: SEC; purified recombinant proteins run alone and after co-incubation; peak fractions visualised by SDS-PAGE
[3] = molecular target: NbDBCP-T (amino acids 1–414 of NbDBCP) (Nicotiana benthamiana); assay: SEC; NbDBCP-T alone; approximate molecular weight by gel filtration chromatography

| left:right ratio of NbDBCP within the 12-mL elution volume (densitometry; 1.37 for NbDBCP-T alone) [2] | stoichiometry N [3] | Substance | Kd ([1]; NbGlk1 alone) [nM] | Kd ([1]; with NbDBCP-T (1-414)) [nM] |
| --- | --- | --- | --- | --- |
| – | – | CGGATATCCACGGATATCCACGGATATCCACGGATATCCACGGATATCCC (double strand) [FA-5/FA-6 concatenated GGATATCC GLK site duplex] | 110 | 160 |
| 1.6 | 2 | NbDBCP-T (amino acids 1–414 of NbDBCP) (domain or fragment) | – | – |
